Measured values published in patent publication US20240109958.

B1: wild-type UCHL1 (UCHL1^WT), C-terminal 6-His tag (protein)
chain: MQLKPMEINPEMLNKVLSRLGVAGQWRFVDVLGLEEESLGSVPAPACALLLLFPLTAQHENFRKKQIEELKGQEVSPKVYFMKQTIGNSCGTIGLIHAVANNQDKLGFEDGSVLKQFLSETEKMSPEDRAKCFEKNEAIQAAHDAVAQEGQCRVDDKVNFHFILFNNVDGHLYELDGRMPFPVNHGASSEDTLLKDAAKVCREFTEREQGEVRFSAVALCHHHHHH
B2: wild-type UCHL5 (UCHL5^WT), C-terminal 6-His tag (protein)
chain: MTGNAGEWCLMESDPGVFTELIKGFGCRGAQVEEIWSLEPENFEKLKPVHGLIFLFKWQPGEEPAGSVVQDSRLDTIFFAKQVINNACATQAIVSVLLNCTHQDVHLGETLSEFKEFSQSFDAAMKGLALSNSDVIRQVHNSFARQQMFEFDTKTSAKEEDAFHFVSYVPVNGRLYELDGLREGPIDLGACNQDDWISAVRPVIEKRIQKYSEGEIRFNLMAIVSDRKMIYEQKIAELQRQLAEEEPMDTDQGNSMLSAIQSEVAKNQMLIEEEVQKLKRYKIENIRRKHNYLPFIMELLKTLAEHQQLIPLVEKAKEKQNAKKAQETKHHHHHH

Target: Ub vinyl sulfone HA-tagged probe (Ub-VS-HA; Cat #U-212, Boston Biochem), P0CG48
Sequence (P0CG48 whole entry, looked up): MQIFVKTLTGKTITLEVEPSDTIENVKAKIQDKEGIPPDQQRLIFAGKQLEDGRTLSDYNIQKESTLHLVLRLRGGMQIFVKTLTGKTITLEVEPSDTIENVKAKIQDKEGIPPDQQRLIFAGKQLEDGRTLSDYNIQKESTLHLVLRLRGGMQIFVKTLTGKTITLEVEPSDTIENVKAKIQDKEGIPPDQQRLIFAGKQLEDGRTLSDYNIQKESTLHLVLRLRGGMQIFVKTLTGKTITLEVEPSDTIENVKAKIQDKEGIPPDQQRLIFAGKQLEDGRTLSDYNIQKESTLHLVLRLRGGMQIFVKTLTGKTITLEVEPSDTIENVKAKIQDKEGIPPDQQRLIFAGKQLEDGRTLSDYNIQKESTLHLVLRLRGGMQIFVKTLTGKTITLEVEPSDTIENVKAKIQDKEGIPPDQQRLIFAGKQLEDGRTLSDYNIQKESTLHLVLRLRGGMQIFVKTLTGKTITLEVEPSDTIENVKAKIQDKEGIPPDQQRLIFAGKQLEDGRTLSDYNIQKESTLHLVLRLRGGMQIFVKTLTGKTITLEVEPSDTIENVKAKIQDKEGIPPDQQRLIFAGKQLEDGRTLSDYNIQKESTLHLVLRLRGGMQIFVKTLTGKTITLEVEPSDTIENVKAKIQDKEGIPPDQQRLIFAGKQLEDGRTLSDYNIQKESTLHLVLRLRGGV

Protein | modification by the suicide probe Ub-VS (immunoblot)
B1 | UCHL1^WT readily reacted with Ub-VS, nearing completion after 30 minutes
B2 | UCHL5^WT was only partially modified at 30 minutes
